Laboratory results as given in patent US20230340555A1, “PRODUCTION OF GLYCOSYLATED CANNABINOIDS” (WILLOW BIOSCIENCES, INC., priority 2020, published 2023).

System: CN3 yeast strain host cells
Assay: Detection of glycosylated cannabinoids and cannabinoid precursors in yeast cells expressing UDP-glycosyl transferase (HPLC-MS)
Format: cell-based
Set-up: key to CBDA-glc / OLA-glc / CBGA-glc / CBGA-(glc)2 / CBD-glc / CBD-(glc)2 / OLA-(glc)2 / CBGA-glucuronic acid: (+) represents the lowest detected quantities; (++), (+++), and (++++) signify relative increasing intermediate detected levels; (++), (+++), and (++++) signify relative increasing intermediate detected levels; (++), (+++), and (++++) signify relative increasing intermediate detected levels; (+++++) represents the highest detected quantities; No detectable levels of a glycosylated cannabinoid compound or glycosylated cannabinoid precursor compound are indicated by “n.d.”
Conditions: for production of glycosylated cannabinoids or cannabinoid precursor compounds: pellet or supernatant of recombinant yeast host cells transformed with the UGT; for CBD-glc: 0.5 g/L CBD
Excerpt: CN3 yeast strain host cells were transformed as described in Example 1 with one of the following heterologous UGT genes: (1) AtUGT73C6, (2) AtUGT73B4, (3) AtUGT71 D1, (4) AtUGT76E12, (5) AtUGT88A1, (6) HaUGT76G1-L, (7) At5g49690, (8) AtUGT76C4, (9) CsUGT73C6, (10) SrUGT76C1, (11) AtUGT85A3, (12) AtUGT73B1, (13) Atg65550, (14) AtUGT76B1, (15) ATUGT76B1, (16) CsUGT75B2, (17) CsUGT73B4, (18) CsUGT73B1, (19) CsUGT75D1-DN11028, and (20) CsUGT71D1-DN48028. The transformed host cells were pre-grown overnight in yeast extract peptone dextrose (YPD) growth medium and then back diluted into yeast extract peptone galactose (YPG) to OD600 = 0.2. […] Strains were incubated for 20 h at 28° C. rotating at 600 RPM in an EPOCH|2 microplate reader (BioTek). Subsequently, samples were treated with an extraction solvent (80 % Acetonitrile, 20 % Methanol) for 1 hour rotating at 100 RPM. After 20 minutes centrifugation at 12,000 RPM, the supernatant was filtered with a basix 13 mm syringe filter (0.22 µm pore size, Nylon membrane) and transferred to a new tube for further analysis.
Glycosylated cannabinoid compounds and glycosylated cannabinoid precursor compounds were assayed in the supernatant and the cellular pellet employing HPLC and HPLC-MS analysis. HPLC and HPLC-MS analysis was carried out as described below to detect the following glycosylated cannabinoid and cannabinoid precursor compounds: CBGA monoglucoside, CBGA diglucoside, CBDA monoglucoside, CBDA diglucoside, CBGA glucuronic acid, CBD monoglucoside, CBD diglucoside, olivetolic acid monoglucoside (“OliAcid monoglucoside”), olivetolic acid diglucoside (“OliAcid diglucoside”).
HPLC analysis was carried out on an Agilent Technologies 1290 Infinity system, consisting of a vacuum degasser, a binary pump, a thermostated autosampler, a thermostated column compartment and a diode array detector (DAD). A Zorbax Eclipse Plus EC-18 column (2.1 × 50 mm, 1.8 µm, Agilent, USA) was used with a mobile phase composed of 0.1% formic acid in both (A) water with 0.2 % Formic Acid and (B) Acetonitrile with 0.2 % Formic Acid. The chromatographic conditions were set as follows: 0.0-8.0 min linear gradient from 5 to 95% B; 8.1-9.09 min […], 9.10-11.0 min 5 to 95% A for equilibration of the column with the initial conditions. The flow rate was set at 0.4 ml/min. The column temperature was set at 40° C. The sample injection volume was 5 µL. The UV/DAD acquisitions were carried out in the range 190-400 nm and chromatograms were acquired at 265 and 350 nm.
HPLC-MS analysis was carried out to confirm the identity of the HPLC peaks using an Agilent Technologies 6530 Accurate-Mass quadrupole time of flight (QToF) mass spectrometer operating in negative ionization (ESI -) mode. The mass spectrometer experimental parameters were set as follows: the capillary voltage was 3.5 kV, the nebulizer (N2) pressure was 35 psi, the drying gas temperature was 350° C., the drying gas flow was 11 L/min and the skimmer voltage was 65 V. Data were acquired by Agilent Mass Hunter software. The mass spectrometer was operated in full-scan mode in the m/z range 50-1100. Extracted ion chromatograms (EICs) were obtained with an accuracy of 10 ppm m/z from total ion chromatogram (TIC) employing the m/z corresponding to the molecular ions [M-H]^- 385.1504 for Olivetolic Acid Mono-Glucoside, 547.2032 for Olivetolic Acid di-Glucoside, 521.2756 for CBGA Mono-Glucoside, 683.3284 for CBGA Di-Glucoside, 535.2549 for CBGA Glucuronic Acid, 519.2600 for CBDA Mono-Glucoside, 475.2701 for CBD Mono-Glucoside, 637.3302 for CBD Di-Glucoside.
The glycosylated cannabinoid compounds and glycosylated cannabinoid precursor compounds were detected in a relative and semi-quantitative fashion. […]

[1] = 20 h growth, detected in PELLET, 0.05 mM hexanoic acid
[2] = 20 h growth, detected in SUPERNATANT, 0.2 mM hexanoic acid

| Molecule | CBGA-glc [1] | OLA-glc [1] | production of glycosylated cannabinoids or cannabinoid precursor compounds | CBGA-(glc)2 [1] | CBGA-glucuronic acid [1] | OLA-(glc)2 [1] | CBD-glc (20 h growth, detected in PELLET) | CBGA-glc [2] | OLA-(glc)2 [2] | OLA-glc [2] | CBD-glc (20 h growth, detected in SUPERNATANT) | CBDA-glc [1] |
| --- | --- | --- | --- | --- | --- | --- | --- | --- | --- | --- | --- | --- |
| AtUGT88A1: UDP-glycosyl transferase from Arabidopsis thaliana, amino acid sequence SEQ ID NO: 6 (protein, listed as Arabidopsis thaliana) MGEEAIVLYPAPPIGHLVSMVELGKTILSKNPSLSIHIILVPPPYQPESTATYISSVSSSFPSITFHHLPAVTPYSSSSTSRHHHESLLLEILCFSNPSVHRTLFSLSRNFNVRAMIIDFFCTAVLDITADFTFPVYFFYTSGAACLAFSFYLPTIDETTPGKNLKDIPTVHIPGVPPMKGSDMPKAVLERDDEVYDVFIMFGKQLSKSSGIIINTFDALENRAIKAITEELCFRNIYPIGPLIVNGRIEDRNDNKAVSCLNWLDSQPEKSVVFLCFGSLGLFSKEQVIEIAVGLEKSGQRFLWVVRNPPELEKTELDLKSLLPEGFLSRTEDKGMVVKSWAPQVPVLNHKAVGGFVTHCGWNSILEAVCAGVPMVAWPLYAEQRFNRVMIVDEIKIAISMNESETGFVSSTEVEKRVQEIIGECPVRERTMAMKNAAELALTETGSSHTALTTLLQSWSPK | ++ | + | detected |  |  |  |  |  |  |  |  |  |
| AtUGT73B4: UDP-glycosyl transferase from Arabidopsis thaliana, amino acid sequence SEQ ID NO: 10 (protein, listed as Arabidopsis thaliana) MNREQIHILFFPFMAHGHMIPLLDMAKLFARRGAKSTLLTTPINAKILEKPIEAFKVQNPDLEIGIKILNFPCVELGLPEGCENRDFINSYQKSDSFDLFLKFLFSTKYMKQQLESFIETTKPSALVADMFFPWATESAEKIGVPRLVFHGTSSFALCCSYNMRIHKPHKKVASSSTPFVIPGLPGDIVITEDQANVTNEETPFGKFWKEVRESETSSFGVLVNSFYELESSYADFYRSFVAKKAWHIGPLSLSNRGIAEKAGRGKKANIDEQECLKWLDSKTPGSVVYLSFGSGTGLPNEQLLEIAFGLEGSGQNFIWVVSKNENQVGTGENEDWLPKGFEERNKGKGLIIRGWAPQVLILDHKAIGGFVTHCGWNSTLEGIAAGLPMVTWPMGAEQFYNEKLLTKVLRIGVNVGATELVKKGKLISRAQVEKAVREVIGGEKAEERRLRAKELGEMAKAAVEEGGSSYNDVNKFMEELNGRK | ++++ | ++++ | detected | ++ | ++ | ++ | ++ | ++ | ++ | +++++ | ++ |  |
| AtUGT76C4: UDP-glycosyl transferase from Arabidopsis thaliana, amino acid sequence SEQ ID NO: 12 (protein, listed as Arabidopsis thaliana) MEKSNGLRVILFPLPLQGCINPMIQLAKILHSRGFSITVIHTCFNAPKASSHPLFTFIQIQDGLSETETRTRDVKLLITLLNQNCESPVRECLRKLLQSAKEEKQRISCLINDSGWIFTQHLAKSLNLMRLAFNTYKISFFRSHFVLPQLRREMFLPLQDSEQDDPVEKFPPLRKKDLLRILEADSVQGDSYSDMILEKTKASSGLIFMSCEELDQDSLSQSREDFKVPIFAIGPSHSHFPASSSSLFTPDETCIPWLDRQEDKSVIYVSIGSLVTINETELMEIAWGLSNSDQPFLWVVRVGSVNGTEWIEAIPEYFIKRLNEKGKIVKWAPQQEVLKHRAIGGFLTHNGWNSTVESVCEGVPMICLPFRWDQLLNARFVSDVWMVGIHLEGRIERDEIERAIRRLLLETEGEAIRERIQLLKEKVGRSVKQNGSAYQSLQNLINYISSF |  | ++ | detected |  |  |  |  |  |  |  |  |  |
| AtUGT76E12: UDP-glycosyl transferase from Arabidopsis thaliana, amino acid sequence SEQ ID NO: 14 (protein, listed as Arabidopsis thaliana) MQVLGMEEKPARRSVVLVPFPAQGHISPMMQLAKTLHLKGFSITVVQTKFNYFSPSDDFTHDFQFVTIPESLPESDFKNLGPIQFLFKLNKECKVSFKDCLGQLVLQQSNEISCVIYDEFMYFAEAAAKECKLPNIIFSTTSATAFACRSVFDKLYANNVQAPLKETKGQQEELVPEFYPLRYKDFPVSRFASLESIMEVYRNTVDKRTASSVIINTASCLESSSLSFLQQQQLQIPVYPIGPLHMVASAPTSLLEENKSCIEWLNKQKVNSVIYISMGSIALMEINEIMEVASGLAASNQHFLWVIRPGSIPGSEWIESMPEEFSKMVLDRGYIVKWAPQKEVLSHPAVGGFWSHCGWNSTLESIGQGVPMICRPFSGDQKVNARYLECVWKIGIQVEGELDRGVVERAVKRLMVDEEGEEMRKRAFSLKEQLRASVKSGGSSHNSLEEFVHFIRTL | +++ | +++ | detected |  |  |  |  | + |  | +++ |  |  |
| HaUGT76G1L: UDP-glycosyl transferase from Helianthus annuus, amino acid sequence SEQ ID NO: 2 (protein, listed as Helianthus annuus) METQTETTNTVRRNRRIIFFPLPYQGHINPMLQLANLLYSKGFSITILHTNFNKPKTSNYPHFTFKFILDNDPHDGRYSNLPLHGMGAFNRVFVFNEDGADELRHELELLMLASKEDDEHVSCLITDALWHFTQSVADSLSLPRLVLRTSSLFSFLIYASIPLLDDRGYLSLSDNTMALILDGLGYHDLSDNKRLEEQVEEFPMLKVKDIVKMGFKREKDGAGGMIDNMVKQTKTSSGIIWNSFKELEESELETIRRDIPAPSFPIPFAKHFTASSSSLLEHDRSFFPWLDQQPPKSVVYVSFGSVAQVEEKHFMEMVHGLVDSKQLFLWVVRPGFVSGSTWLEPLPDGFPGERGRIVKWAPQQEVLGHEAIGAFWTHGGWNSTLESVCEGVPMICSPFWGDQPLDARYVSDVWKVGVYLENGWKREEITGAIRRVMTDEEMRERARVLKQKLDVSLMKGGSSYESVESLVAYVSSF |  | ++ | detected |  |  |  |  |  |  |  |  | ++ |
| CsUGT73C6: UDP-glycosyl transferase from Cannabis sativa, amino acid sequence SEQ ID NO: 16 (protein, listed as Cannabis sativa) MASEPYKLHLIVIPFMAPGHFIPMADMARKLAEHGAMITLITLPVIAARIRPIIEQATENSNLKIQLVQVSLPLHEFGLPEGCDTVDLVPSRNLLLSFFIALDELQQPIEQVVSELKPRPSCIIADKHLPWTAEIATKFGIPRVLFDGMSCFSLLCNHMIRKSQVHLSVPMSVPFVVPGMPDHLEFTRNQLAADLYPNLEFGQKFHDRIRESEEGADGFLVNSFEELEWKYVEGYRKEKVGKAWCIGPVSLFNKTKLEVAQRGNNPAGAVDEKQCTEWLDSWPKSCVVYACLGSVSRLLIPQMIELGVALEASNKPFIWVIRGYDQEEEIEKWISESGFKERTKSRALLIFGWAPQVLILSHSSVGGFLTHCGWNSTLEGITYGKPMITWPMFAEQFYNQKLIVQVLKVGESVGPKFVVPYGREEEFGVFVLSKDILEAIEKVMAQDKEGEERRERVKRLSDMAQKAIEEGGSSYLDMKLFIEDIRNLHIS |  | ++ | detectable |  |  |  |  |  |  | ++ |  |  |
